Assay results reported in patent publication US20160347841A1 (UNIVERSIDAD NACIONAL AUT NOMA DE M XICO, published 2016).

Biological target: T1, DEC-205 receptor of dog spleen cells (dog, UniProt A0A8I3Q134 28-1723)
T1 construct: whole, on cells; It only reports that no 205 kDa band was isolated
Assay: immunoprecipitation from spleen white cell lysate, SDS-PAGE
Description: For this purpose Jurkat cells (the cell line of human T lymphocytes) as well as white cells obtained from the spleens of different animals (pigs and dogs) were lysed in an immunoprecipitation buffer (PBS pH 7.4, 1% Triton X-100 with protease inhibitor). […] Then, 50 μL of A-Sepharose protein (Pierce, Rockford, Ill., USA) was used for immunoprecipitation, with incubation being done for one hour at ambient temperature. The immune complexes that were formed were washed extensively. The immunoprecipitates were eluted by boiling for five minutes in a sample buffer with SDS. These precipitates were analyzed on a 10% SDS-PAGE gel under reducing conditions using molecular weight markers. […] The molecular weights are indicated.

T1 sequence (A0A8I3Q134 entry or part of it): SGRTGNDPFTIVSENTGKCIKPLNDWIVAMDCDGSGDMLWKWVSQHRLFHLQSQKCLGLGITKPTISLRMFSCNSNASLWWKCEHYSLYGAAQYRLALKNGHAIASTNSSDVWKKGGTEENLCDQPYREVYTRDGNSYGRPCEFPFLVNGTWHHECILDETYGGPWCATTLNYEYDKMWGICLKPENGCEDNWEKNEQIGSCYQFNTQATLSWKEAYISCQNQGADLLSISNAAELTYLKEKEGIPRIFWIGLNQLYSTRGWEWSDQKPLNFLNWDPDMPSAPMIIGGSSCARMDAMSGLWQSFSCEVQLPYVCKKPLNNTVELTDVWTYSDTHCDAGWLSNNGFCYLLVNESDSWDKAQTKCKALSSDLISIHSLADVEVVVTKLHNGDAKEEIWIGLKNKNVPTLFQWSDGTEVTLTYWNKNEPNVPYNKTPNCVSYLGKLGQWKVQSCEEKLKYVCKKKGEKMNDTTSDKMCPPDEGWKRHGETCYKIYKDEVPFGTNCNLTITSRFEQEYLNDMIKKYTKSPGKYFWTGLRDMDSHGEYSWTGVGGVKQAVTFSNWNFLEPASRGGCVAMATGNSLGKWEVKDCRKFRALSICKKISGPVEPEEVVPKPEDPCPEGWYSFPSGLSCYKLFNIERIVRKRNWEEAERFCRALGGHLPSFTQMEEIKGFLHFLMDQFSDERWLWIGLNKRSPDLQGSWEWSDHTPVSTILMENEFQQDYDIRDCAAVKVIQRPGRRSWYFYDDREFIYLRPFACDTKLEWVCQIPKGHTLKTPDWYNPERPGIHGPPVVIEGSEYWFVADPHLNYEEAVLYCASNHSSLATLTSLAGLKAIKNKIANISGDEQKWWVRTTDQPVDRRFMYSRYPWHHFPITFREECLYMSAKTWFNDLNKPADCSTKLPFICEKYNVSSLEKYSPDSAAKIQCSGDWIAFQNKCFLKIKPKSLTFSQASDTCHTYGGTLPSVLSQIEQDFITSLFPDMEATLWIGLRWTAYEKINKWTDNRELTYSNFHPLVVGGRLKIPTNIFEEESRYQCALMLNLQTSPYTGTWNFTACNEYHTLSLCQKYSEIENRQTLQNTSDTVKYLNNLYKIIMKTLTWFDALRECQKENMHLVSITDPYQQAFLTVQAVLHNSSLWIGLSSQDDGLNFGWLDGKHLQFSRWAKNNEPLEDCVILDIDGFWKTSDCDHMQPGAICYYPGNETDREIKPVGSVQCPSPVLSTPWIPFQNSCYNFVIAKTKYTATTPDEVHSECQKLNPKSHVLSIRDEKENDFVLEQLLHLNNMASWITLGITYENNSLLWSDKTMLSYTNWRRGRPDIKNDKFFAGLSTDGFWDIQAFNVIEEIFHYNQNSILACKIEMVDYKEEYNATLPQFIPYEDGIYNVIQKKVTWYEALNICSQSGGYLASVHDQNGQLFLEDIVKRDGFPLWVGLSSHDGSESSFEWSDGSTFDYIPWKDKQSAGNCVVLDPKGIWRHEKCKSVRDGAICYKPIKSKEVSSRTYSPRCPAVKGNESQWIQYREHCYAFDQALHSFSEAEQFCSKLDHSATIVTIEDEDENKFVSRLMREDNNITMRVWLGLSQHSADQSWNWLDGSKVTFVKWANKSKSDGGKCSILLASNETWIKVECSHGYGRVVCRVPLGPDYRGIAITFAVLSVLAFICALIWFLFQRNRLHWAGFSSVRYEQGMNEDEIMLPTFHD

B1: murine monoclonal antibody 2F2E8E3B6 anti-CTLD-2 (antibody, IgG2a, V domains shown)
VH: EVQLQQSTAEFVKPGASVKLSCTASGFNIKDTYIHWVKQRPEQGLEWIGRIDPANGNTRYDPKFQGKATMTADTSSNTAYLQLSSLTSEDTAVYYCARYDVTYWGQGTLVTVS
VL: DIVMSQSPSSLAVSAGERVTMSCKSSQSLLNSRTRKNYLAWYQQKPGQSPKLLIYWASTRESGVPDRFTGSGSGTDFTLTISSVRAEDLAVYYCKQSYNLYTFGRGTKLEIK
notes: also called 2F2E8D3B6; AbM 2F2E8E3B6
binding result: no binding
